Measurements reported in US20250320281A1.

What was measured:
Assay in all cases: cell-based or functional assay
[1] = biological target: HIV-1 Env of pseudovirus MGRM-AG-013 (subtype AG) (HIV-1)
[2] = biological target: HIV-1 Env of pseudovirus MGRM-AG-006 (subtype AG) (HIV-1)
[3] = biological target: HIV-1 Env of isolate MGRM-F1-008 (HIV-1)
[4] = biological target: HIV-1 Env of isolate MGRM-F1-018 (HIV-1)
[5] = biological target: HIV-1 Env of isolate MG RM-D-028 (HIV-1)
[6] = biological target: HIV-1 Env of isolate MG RM-D-016 (HIV-1)
[7] = biological target: HIV-1 Env of isolate MGRM-F1-016 (HIV-1)
[8] = biological target: HIV-1 Env of pseudovirus MGRM-AG-008 (subtype AG) (HIV-1)
[9] = biological target: HIV-1 Env of pseudovirus MGRM-AG-009 (subtype AG) (HIV-1)
[10] = biological target: HIV-1 Env of isolate MGRM-F1-015 (HIV-1)
[11] = biological target: HIV-1 Env of isolate MG RM-D-018 (HIV-1)
[12] = biological target: HIV-1 Env of isolate MGRM-F1-004 (HIV-1)
[13] = biological target: HIV-1 Env of isolate MGRM-F1-013 (HIV-1)
[14] = biological target: HIV-1 Env of pseudovirus MGRM-AG-003 (subtype AG) (HIV-1)
[15] = biological target: HIV-1 Env of pseudovirus MGRM-AG-001 (subtype AG) (HIV-1)
[16] = biological target: HIV-1 Env of pseudovirus MGRM-AG-005 (subtype AG) (HIV-1)
[17] = biological target: HIV-1 Env of pseudovirus MGRM-AG-012 (subtype AG) (HIV-1)
[18] = biological target: HIV-1 Env of pseudovirus MGRM-AG-002 (subtype AG) (HIV-1)
[19] = biological target: HIV-1 Env of isolate MGRM-F1-014 (HIV-1)
[20] = biological target: HIV-1 Env of isolate MG RM-D-021 (HIV-1)
[21] = biological target: HIV-1 Env of isolate MG RM-D-014 (HIV-1)
[22] = biological target: HIV-1 Env of isolate MG RM-D-024 (HIV-1)
[23] = biological target: HIV-1 Env of pseudovirus MGRM-AE-008 (subtype AE) (HIV-1)
[24] = biological target: HIV-1 Env of isolate MGRM-F1-021 (HIV-1)
[25] = biological target: HIV-1 Env of isolate MG RM-D-022 (HIV-1)
[26] = biological target: HIV-1 Env of isolate MG RM-D-019 (HIV-1)
[27] = biological target: HIV-1 Env of pseudovirus MGRM-AG-011 (subtype AG) (HIV-1)
[28] = biological target: HIV-1 Env of pseudovirus MGRM-AE-007 (subtype AE) (HIV-1)
[29] = biological target: HIV-1 Env of isolate MGRM-F1-020 (HIV-1)
[30] = biological target: HIV-1 Env of isolate MGRM-Chronic-B-012 (HIV-1)
[31] = biological target: HIV-1 Env of isolate MGRM-F1-022 (HIV-1)
[32] = biological target: HIV-1 Env of isolate MGRM-F1-012 (HIV-1)
[33] = biological target: HIV-1 Env of isolate MG RM-D-012 (HIV-1)
[34] = biological target: HIV-1 Env of isolate MG RM-D-011 (HIV-1)
[35] = biological target: HIV-1 Env of isolate MG RM-D-026 (HIV-1)
[36] = biological target: HIV-1 Env of isolate MGRM-F1-017 (HIV-1)
[37] = biological target: HIV-1 Env of isolate MG RM-D-029 (HIV-1)
[38] = biological target: HIV-1 Env of isolate MG RM-D-020 (HIV-1)
[39] = biological target: HIV-1 Env of isolate MGRM-F1-006 (HIV-1)
[40] = biological target: HIV-1 Env of isolate MGRM-F1-023 (HIV-1)
[41] = biological target: HIV-1 Env of isolate MGRM-F1-010 (HIV-1)
[42] = biological target: HIV-1 Env of isolate MG RM-D-013 (HIV-1)
[43] = biological target: HIV-1 Env of isolate MGRM-C-026 (pseudovirus) (HIV-1)
[44] = biological target: HIV-1 Env of isolate 92BR020 (pseudovirus) (HIV-1)
[45] = biological target: HIV-1 Env of isolate JR-CSF (pseudovirus) (HIV-1) (UniProt P20871)
[46] = biological target: HIV-1 Env of isolate 94UG103 (pseudovirus) (HIV-1)

PGT-145 (4995_P16) (antibody), sequence (VH): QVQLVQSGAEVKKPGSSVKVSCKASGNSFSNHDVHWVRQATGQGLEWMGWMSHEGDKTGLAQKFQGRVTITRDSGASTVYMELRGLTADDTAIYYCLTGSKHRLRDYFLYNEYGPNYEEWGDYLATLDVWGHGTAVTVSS
PGT-145 (4995_P16) (antibody), sequence (VL): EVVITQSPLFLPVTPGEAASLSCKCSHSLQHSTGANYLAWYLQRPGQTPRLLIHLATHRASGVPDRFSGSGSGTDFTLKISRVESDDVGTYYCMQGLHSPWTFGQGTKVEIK

PGT-145 (4995_P16) (antibody) was tested, and the IC50, pseudovirus neutralization [1] was 14.4 µg/mL, the IC50, pseudovirus neutralization [2] was 6.6 µg/mL and the IC50 [3] was 0.228 µg/mL. For the same substance, the IC50 [4] was 1.02 µg/mL, the IC50 [5] was 0.721 µg/mL and the IC50 [6] was greater than 50 µg/mL. It also gave an IC50 [7] of 17.5 µg/mL, an IC50, pseudovirus neutralization [8] of 0.244 µg/mL and an IC50, pseudovirus neutralization [9] greater than 50 µg/mL. It also gave an IC50 [10] of 1.76 µg/mL, an IC50 [11] of 0.065 µg/mL and an IC50 [12] of 0.361 µg/mL. It also gave an IC50 [13] of 0.402 µg/mL, an IC50, pseudovirus neutralization [14] greater than 50 µg/mL and an IC50, pseudovirus neutralization [15] of 0.164 µg/mL. For the same substance, the IC50, pseudovirus neutralization [16] was 0.045 µg/mL, the IC50, pseudovirus neutralization [17] was greater than 50 µg/mL and the IC50, pseudovirus neutralization [18] was 0.056 µg/mL. It also gave an IC50 [19] of 0.009 µg/mL, an IC50 [20] greater than 50 µg/mL and an IC50 [21] of 2.51 µg/mL. It also gave an IC50 [22] of 0.224 µg/mL, an IC50, pseudovirus neutralization [23] of 1.46 µg/mL and an IC50 [24] of 8.04 µg/mL. It also gave an IC50 [25] of 34.3 µg/mL, an IC50 [26] of 0.111 µg/mL and an IC50, pseudovirus neutralization [27] of 0.003 µg/mL. The IC50, pseudovirus neutralization [28] was 0.181 µg/mL, the IC50 [29] was 0.816 µg/mL and the IC50, pseudovirus neutralization [30] was 9.06 µg/mL. For the same substance, the IC50 [31] was 0.009 µg/mL, the IC50 [32] was 0.113 µg/mL and the IC50 [33] was greater than 50 µg/mL. The IC50 [34] was 14.7 µg/mL, the IC50 [35] was 0.41 µg/mL and the IC50 [36] was 0.286 µg/mL. The IC50 [37] was 0.03 µg/mL, the IC50 [38] was 10 µg/mL and the IC50 [39] was 13.6 µg/mL. For the same substance, the IC50 [40] was 5.88 µg/mL, the IC50 [41] was 3.32 µg/mL and the IC50 [42] was 3.48 µg/mL.

In the case of 4873_E03 (PGT-121) (antibody), the Primary Neutralization Index (B cell culture supernatant) [43] is reported as 371, the Primary Neutralization Index (B cell culture supernatant) [44] is reported as 3.6 and the Primary Neutralization Index (B cell culture supernatant) [45] is reported as 2.2. The Primary Neutralization Index (B cell culture supernatant) [46] was 0.8.
